The values that follow come from patent publication US5621079A, “Neuropeptide Y receptor” (Merck & Co., Inc., priority 1995, dated 1997).

pIC50: −log10 of the molar value.

This experiment addresses T1, murine NPY Yx receptor (Mus musculus, UniProt Q61212).
T1 construct: identified a 371 amino acid open reading frame; expressed in transfected cells; host or cells: COS-7 cells, transient (pcDNA3 vector pVE2863), membranes
T1 sequence (Q61212 1-371): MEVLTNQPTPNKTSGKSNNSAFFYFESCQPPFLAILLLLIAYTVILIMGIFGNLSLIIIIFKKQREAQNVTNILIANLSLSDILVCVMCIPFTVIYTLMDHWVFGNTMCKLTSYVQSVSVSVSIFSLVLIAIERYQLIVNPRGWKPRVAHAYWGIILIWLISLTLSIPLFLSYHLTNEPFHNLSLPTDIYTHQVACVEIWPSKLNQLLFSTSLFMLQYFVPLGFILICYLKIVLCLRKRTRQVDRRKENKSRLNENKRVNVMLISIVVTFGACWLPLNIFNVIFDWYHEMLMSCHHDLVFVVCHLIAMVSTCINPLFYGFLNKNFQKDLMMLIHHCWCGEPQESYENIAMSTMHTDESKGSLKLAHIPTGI
Description: 125I-PYY competition binding to membranes of COS-7 cells transfected with the murine NPY Yx receptor. The conditions noted are these: COS-7 membranes (50 μg protein), 125I-PYY 90 pM, 2 hours at room temperature; read-out: IC50 (concentration of peptide causing 50% inhibition of 125I-PYY binding). The method, then: Using electroporation, COS-7 cells were transfected with the pcDNA3 expression vector containing the genomic DNA for the murine NPY Yx receptor (pVE2863). Two days post transfection, cells were dissociated with enzyme-free dissociation buffer, centrifuged at 1000 rpm for 10 minutes at 4° C., and resuspended in 10 mM Tris, pH 7.4 containing […] (phenylmethylsulfonyl fluoride), 10 μM phosphoramidon, and 40 μg/ml bacitracin. The cell suspension was homogenized with a glass homogenizer, and centrifuged at 2200 rpm for 10 minutes at 4° C. to remove cell debris. The plasma membrane fraction was recovered by centrifuging the supernatant at 18,000 rpm in a Sorvall SS-34 rotor for 15 minutes at 4° C. The membrane pellet was resuspended in the Tris/PMSF/phosphoramidon/bacitracin buffer by trituration 5 times using a 25 g needle and syringe. The membranes were stored frozen at -80° C. until use.
After 2 hours at room temperature, the incubation was filtered over GF/C filters, and the radioactivity bound to the filters was quantified with a Packard gamma counter.
As for NPY2-36 [NPY(2-36)], the pIC50 was 7.80.
Regarding NPY13-36 [NPY(13-36)], the pIC50 was 6.87.
For Neuropeptide Y [NPY], the pIC50 was 8.22.
For [Leu31, Pro34]NPY [[Leu^31, Pro^34]NPY] the value was 8.05.
